Experimental data: patent US20140107021A1 (priority 2010, published 2014)
Where two headings read alike, the source gives them in different places. Bridge positions count the residues as written; N and C are the ends. Square brackets hold non-standard residues; d marks the D form. Side chains are listed from the residue outwards. Ends that are not written are not given here. PEG40kDa = 40 kDa polyethylene glycol; Ac‑Cys = acetylated cysteine; Aib = CC(C)(N)C(=O)O

Columns and labels:
[1] = target: T1, glucagon receptor (Homo sapiens, UniProt P47871); assay: cAMP induction at the glucagon receptor (agonist activity), luciferase reporter assay in HEK293 cells; assay type: cell-based; design: expressed in transfected cells; host or cells: HEK293; settings: for EC50: read-out: GR EC50; for GR relative activity: relative to standard
Text: (§1) HEK293 cells co-transfected with the receptor and luciferase gene linked to a cAMP responsive element were employed for the bioassay.
(§2) All EC50s and IC50s are reported in the following examples in nM, unless indicated otherwise.

[2] = target: T2, GLP-1 receptor (Homo sapiens, UniProt P43220); assay: cAMP induction at the GLP-1 receptor (agonist activity), firefly luciferase reporter assay in HEK293 cells; assay type: cell-based; settings: for GLP-1R relative activity: Table 5, relative to standard
T2 construct: expressed in transfected cells; host or cells: HEK293
Text: as §1, §2

[3] = target: T3, GIP receptor (Homo sapiens, UniProt P48546); assay: cAMP induction at the GIP receptor (agonist activity), luciferase reporter assay in HEK293 cells; assay type: cell-based; settings: for GIPR relative activity: Table 5, relative to standard
T3 construct: expressed in transfected cells; host or cells: HEK293
T3 sequence (P48546 22-466): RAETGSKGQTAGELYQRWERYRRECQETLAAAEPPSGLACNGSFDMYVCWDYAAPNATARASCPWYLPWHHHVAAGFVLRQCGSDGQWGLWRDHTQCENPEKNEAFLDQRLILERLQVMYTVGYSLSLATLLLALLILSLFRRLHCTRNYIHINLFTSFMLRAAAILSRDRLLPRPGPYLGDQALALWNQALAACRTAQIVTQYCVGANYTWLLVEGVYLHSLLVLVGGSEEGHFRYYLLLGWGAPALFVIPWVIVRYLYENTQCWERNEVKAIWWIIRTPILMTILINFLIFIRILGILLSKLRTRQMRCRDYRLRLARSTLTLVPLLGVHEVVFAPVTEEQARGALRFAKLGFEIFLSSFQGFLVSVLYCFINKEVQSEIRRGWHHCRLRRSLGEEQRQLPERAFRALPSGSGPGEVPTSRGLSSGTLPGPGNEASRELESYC
Text: as §1, §2

[4] = target: T1, glucagon receptor; assay: cell-based
Text: as §1, §2

T1 sequence (P47871 26-477): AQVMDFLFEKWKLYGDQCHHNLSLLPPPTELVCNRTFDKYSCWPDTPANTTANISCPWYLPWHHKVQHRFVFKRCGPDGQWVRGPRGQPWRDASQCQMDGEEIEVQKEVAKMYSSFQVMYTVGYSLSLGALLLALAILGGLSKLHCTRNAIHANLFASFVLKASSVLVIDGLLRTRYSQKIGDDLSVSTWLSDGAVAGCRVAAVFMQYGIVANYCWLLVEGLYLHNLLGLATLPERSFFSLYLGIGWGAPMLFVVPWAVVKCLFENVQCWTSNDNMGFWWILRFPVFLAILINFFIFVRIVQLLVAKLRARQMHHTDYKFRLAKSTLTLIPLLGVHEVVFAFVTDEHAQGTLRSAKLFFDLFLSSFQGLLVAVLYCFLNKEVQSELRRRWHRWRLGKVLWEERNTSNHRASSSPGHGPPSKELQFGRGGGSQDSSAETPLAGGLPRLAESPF
T2 sequence (P43220 24-463): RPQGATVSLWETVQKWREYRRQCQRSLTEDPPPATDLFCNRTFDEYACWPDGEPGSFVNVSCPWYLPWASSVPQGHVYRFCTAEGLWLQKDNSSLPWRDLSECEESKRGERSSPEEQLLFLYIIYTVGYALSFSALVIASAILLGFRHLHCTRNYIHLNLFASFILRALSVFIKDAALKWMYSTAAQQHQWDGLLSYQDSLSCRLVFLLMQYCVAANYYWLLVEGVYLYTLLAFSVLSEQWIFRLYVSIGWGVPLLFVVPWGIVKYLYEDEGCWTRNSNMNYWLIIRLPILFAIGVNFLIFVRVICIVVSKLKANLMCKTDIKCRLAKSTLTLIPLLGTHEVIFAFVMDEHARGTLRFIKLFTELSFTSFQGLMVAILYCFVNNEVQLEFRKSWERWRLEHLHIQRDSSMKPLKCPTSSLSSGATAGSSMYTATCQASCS

Compound | EC50 ([1]; Table 5) | GR relative activity ([1]; Table 5) | GLP-1R relative activity [2] | GIPR relative activity [3] | other results
mt-217: lactam 16-20 glucagon analog, Lys24 carrying Ala spacer, acetylated Cys and 40 kDa PEG; SEQ ID NO: 19 (Y[Aib]QGTFTSDYSIYLDEQAAKEFVK([Ala-Ac‑Cys-PEG40kDa])FLLAGGPSSGAPPPS-NH2; lactam 16-20) | 13.9 nM | 0.82% | 11.26% | 0.20% | 
mt-225: as mt-217 but modified Lys at position 40 and Asn at position 24; SEQ ID NO: 359 (Y[Aib]QGTFTSDYSIYLDEQAAKEFVNWLLAGGPSSGAPPPSK([Ala-Ac‑Cys-PEG40kDa])-NH2; lactam 16-20) | 2.71 nM | 1.99% | 29.59% | 0.90% | 
CC[C@H](C)[C@H](NC(=O)[C@H](CO)NC(=O)[C@H](Cc1ccc(O)cc1)NC(=O)[C@H](CC(=O)O)NC(=O)[C@H](CO)NC(=O)[C@@H](NC(=O)[C@H](Cc1ccccc1)NC(=O)[C@@H](NC(=O)CNC(=O)[C@H](CCC(=O)O)NC(=O)C(C)(C)NC(=O)[C@@H](N)Cc1ccc(O)cc1)[C@@H](C)O)[C@@H](C)O)C(=O)N[C@@H](Cc1ccc(O)cc1)C(=O)N[C@@H](CC(C)C)C(=O)N[C@@H](CC(=O)O)C(=O)N[C@@H](CCCCN)C(=O)N[C@@H](CCC(N)=O)C(=O)N[C@@H](C)C(=O)N[C@@H](C)C(=O)NC(C)(C)C(=O)N[C@@H](CCC(=O)O)C(=O)N[C@@H](Cc1ccccc1)C(=O)N[C@H](C(=O)N[C@@H](CC(N)=O)C(=O)N[C@@H](Cc1c[nH]c2ccccc12)C(=O)N[C@@H](CC(C)C)C(=O)N[C@@H](CC(C)C)C(=O)N[C@@H](C)C(=O)NCC(=O)NCC(=O)N1CCC[C@H]1C(=O)N[C@@H](CO)C(=O)N[C@@H](CO)C(=O)NCC(=O)N[C@@H](C)C(=O)N1CCC[C@H]1C(=O)N1CCC[C@H]1C(=O)N1CCC[C@H]1C(=O)N[C@@H](CO)C(=O)N[C@H](CCCCN)C(N)=O)C(C)C [mt-398] |  |  |  |  | EC50 ([1]; Table 4): 3.74 nM; EC50 ([2]; Table 4, read-out: GLP-1R EC50): 0.0078 nM; EC50 ([3]; Table 4, read-out: GIPR EC50): 0.0031 nM
mt-219: as mt-217 with Arg as the amino acid spacer; SEQ ID NO: 21 (Y[Aib]QGTFTSDYSIYLDEQAAKEFVK([Arg-Ac‑Cys-PEG40kDa])FLLAGGPSSGAPPPS-NH2; lactam 16-20) | 17.6 nM | 0.65% | 16.56% | .31% | 
mt-226: as mt-218 but modified Lys at position 40 and Asn at position 24; SEQ ID NO: 23 (Y[Aib]QGTFTSDYSIYLDEQAAKEFVNWLLAGGPSSGAPPPSK([Glu-Ac‑Cys-PEG40kDa])-NH2; lactam 16-20) | 3.46 nM | 1.56% | 29.90% | 1.16% | 
CSCC[C@H](NC(=O)[C@H](CC(C)C)NC(=O)[C@H](Cc1c[nH]c2ccccc12)NC(=O)[C@H](CCC(N)=O)NC(=O)[C@@H](NC(=O)[C@H](Cc1ccccc1)NC(=O)[C@H](CC(=O)O)NC(=O)[C@@H]1CCCCNC(=O)CC[C@H](NC(=O)[C@H](CC(=O)O)NC(=O)[C@H](CC(C)C)NC(=O)[C@H](Cc2ccc(O)cc2)NC(=O)[C@H](CCCCN)NC(=O)[C@H](CO)NC(=O)[C@H](Cc2ccc(O)cc2)NC(=O)[C@H](CCC(=O)O)NC(=O)[C@H](CO)NC(=O)[C@@H](NC(=O)[C@@H](O)Cc2ccccc2)[C@@H](C)O)C(=O)N[C@@H](CCCNC(=N)N)C(=O)N[C@@H](CCCNC(=N)N)C(=O)N[C@@H](C)C(=O)N1)C(C)C)C(=O)N[C@@H](CC(N)=O)C(=O)N[C@H](C(=O)NCC(=O)N1CCC[C@H]1C(=O)N[C@@H](CO)C(=O)N[C@@H](CO)C(=O)NCC(=O)N[C@@H](C)C(=O)N1CCC[C@H]1C(=O)N1CCC[C@H]1C(=O)N1CCC[C@H]1C(=O)N[C@@H](CO)C(N)=O)[C@@H](C)O [[PLA6, E9, E16K20(Lactam)]] |  |  |  |  | IC50 ([4]; Glu ICso (nM), Table A, Glu = glucagon): 20 nM; IC50 ([4]; Glucagon IC50 (nM), Table C): 20 nM; EC50 ([2]; GLP-1 EC50 (nM), Table C): 20 nM; EC50 ([2]; GLP-1 ECso (nM), Table A): 20 nM
